According to PMC3347535, “D-Arabinose Methabolism: Characterization of Bifunctional Arabinokinase/Pyrophosphorylase of Leishmania major” (Acta Naturae, 2009):

Test system: O=P(O)(O)OC1OC[C@@H](O)[C@@H](O)[C@@H]1O
Test: purified protein
Settings: GDP-D-Arap pyrophosphorylase reaction; GTP co-substrate; exogenous arabinose phosphate; kinetic assay conditions not given

## LmjF16.0480 (Leishmania major)
  Km: 67.0 mM
